Data reported in US20250179176A1, “ANTI-TIGIT ANTIBODIES AND USES OF THE SAME” (ARCUS BIOSCIENCES, INC., priority 2022, published 2025).

Assay: Clinical safety of domvanalimab, 99 participants (AB154CSP0001 and ARC-7): TEAEs, related AEs, SAEs
Format: in vivo, human
Details: for Any TEAEs / TEAE Diarrhoea / TEAE Fatigue / TEAE Nausea / TEAE Pruritus: Table 15

B1: domvanalimab: anti-TIGIT antibody with engineered IgG1 Fc, reduced FcγR binding; heavy chain SEQ ID NO: 12, light chain SEQ ID NO: 13 (antibody)
heavy: EVQLVESGGGLVQPGGSLRLSCAASGFTFSNFGMHWVRQAPGKGLEWVAFISSGSSSIYYADTVKGRFTISRDNAKNSLYLQMNSLRAEDTAVYYCARMRLDYYAMDYWGQGTMVTVSSASTKGPSVFPLAPSSKSTSGGTAALGCLVKDYFPEPVTVSWNSGALTSGVHTFPAVLQSSGLYSLSSVVTVPSSSLGTQTYICNVNHKPSNTKVDKKVEPKSCDKTHTCPPCPAPEAAGGPSVFLFPPKPKDTLMISRTPEVTCWVDVSHEDPEVKFNWYVDGVEVHNAKTKPREEQYNSTYRWSVLTVLHQDWLNGKEYKCKVSNKALPAPIEKTISKAKGQPREPQVYTLPPSRDELTKNQVSLTCLVKGFYPSDIAVEWESNGQPENNYKTTPPVLDSDGSFFLYSKLTVDKSRWQQGNVFSCSVMHEALHNHYTQKSLSLSPGK
light: DIQMTQSPSSLSASVGDRVTITCRASKSISKYLAWYQQKPGKAPKLLIYSGSTLQSGVPSRFSGSGSGTDFTLTISSLQPEDFATYYCQQHNEYPWTFGGGTKVEIKRTVAAPSVFIFPPSDEQLKSGTASWCLLNNFYPREAKVQWKVDNALQSGNSQESVTEQDSKDSTYSLSSTLTLSKADYEKHKVYACEVTHQGLSSPVTKSFNRGEC
Domvanalimab-related AE: Vomiting (ARC-7 (N = 37)): 1 ( 2.7%) | Any TEAEs (ARC-7 (n = 37)): 31 (83.8%) | TEAE Diarrhoea (ARC-7 (n = 37)): 5 (13.5%) | TEAE Fatigue (ARC-7 (n = 37)): 3 (8.1%) | TEAE Nausea (ARC-7 (n = 37)): 4 (10.8%) | TEAE Pruritus (ARC-7 (n = 37)): 4 (10.8%) | Any TEAEs (Total (n = 99)): 84 (84.8%) | TEAE Diarrhoea (Total (n = 99)): 10 (10.1%) | TEAE Fatigue (Total (n = 99)): 12 (12.1%) | TEAE Nausea (Total (n = 99)): 13 (13.1%) | TEAE Pruritus (Total (n = 99)): 10 (10.1%) | Any TEAEs (n = 62): 53 (85.5%) | TEAE Diarrhoea (n = 62): 5 (8.1%) | TEAE Fatigue (n = 62): 9 (14.5%) | TEAE Nausea (n = 62): 9 (14.5%) | TEAE Pruritus (n = 62): 6 (9.7%) | Domvanalimab-related AE: Abdominal distension (Total (N = 99)): 1 ( 1.0%) | Domvanalimab-related AE: Abdominal pain (Total (N = 99)): 1 ( 1.0%) | Domvanalimab-related AE: Adrenal insufficiency (Total (N = 99)): 1 ( 1.0%) | Domvanalimab-related AE: Anaemia (Total (N = 99)): 1 ( 1.0%) | Domvanalimab-related AE: Any AEs (Total (N = 99)): 50 (50.5%) | Domvanalimab-related AE: Arthralgia (Total (N = 99)): 4 (4.0%) | Domvanalimab-related AE: Arthritis (Total (N = 99)): 1 ( 1.0%) | Domvanalimab-related AE: Aspartate aminotransferase increased (Total (N = 99)): 1 ( 1.0%) | Domvanalimab-related AE: Asthenia (Total (N = 99)): 1 ( 1.0%) | Domvanalimab-related AE: Back pain (Total (N = 99)): 2 ( 2.0%) | Domvanalimab-related AE: Constipation (Total (N = 99)): 2 ( 2.0%) | Domvanalimab-related AE: Cough (Total (N = 99)): 1 ( 1.0%) | Domvanalimab-related AE: Decreased appetite (Total (N = 99)): 3 (3.0%) | Domvanalimab-related AE: Delirium (Total (N = 99)): 1 ( 1.0%) | Domvanalimab-related AE: Diarrhoea (Total (N = 99)): 5 (5.1%) | Domvanalimab-related AE: Dry eye (Total (N = 99)): 1 ( 1.0%) | Domvanalimab-related AE: Dry mouth (Total (N = 99)): 1 ( 1.0%) | Domvanalimab-related AE: Dyspnoea exertional (Total (N = 99)): 1 ( 1.0%) | Domvanalimab-related AE: Fatigue (Total (N = 99)): 6 (6.1%) | Domvanalimab-related AE: Flank pain (Total (N = 99)): 1 ( 1.0%) | Domvanalimab-related AE: Generalised oedema (Total (N = 99)): 1 ( 1.0%) | Domvanalimab-related AE: Headache (Total (N = 99)): 4 (4.0%) | Domvanalimab-related AE: Hot flush (Total (N = 99)): 1 ( 1.0%) | Domvanalimab-related AE: Hyperglycaemia (Total (N = 99)): 1 ( 1.0%) | Domvanalimab-related AE: Hyperkalaemia (Total (N = 99)): 1 ( 1.0%) | Domvanalimab-related AE: Hyperthyroidism (Total (N = 99)): 3 (3.0%) | Domvanalimab-related AE: Hypokalaemia (Total (N = 99)): 1 ( 1.0%) | Domvanalimab-related AE: Hypothyroidism (Total (N = 99)): 4 (4.0%) | Domvanalimab-related AE: Immune-mediated hepatitis (Total (N = 99)): 2 ( 2.0%) | Domvanalimab-related AE: Influenza like illness (Total (N = 99)): 1 ( 1.0%) | Domvanalimab-related AE: Infusion related reaction (Total (N = 99)): 2 ( 2.0%) | Domvanalimab-related AE: Infusion site pain (Total (N = 99)): 1 ( 1.0%) | Domvanalimab-related AE: Liver function test increased (Total (N = 99)): 1 ( 1.0%) | Domvanalimab-related AE: Lymphopenia (Total (N = 99)): 1 ( 1.0%) | Domvanalimab-related AE: Malaise (Total (N = 99)): 2 ( 2.0%) | Domvanalimab-related AE: Muscle spasms (Total (N = 99)): 1 ( 1.0%) | Domvanalimab-related AE: Musculoskeletal chest pain (Total (N = 99)): 1 ( 1.0%) | Domvanalimab-related AE: Myalgia (Total (N = 99)): 1 ( 1.0%) | Domvanalimab-related AE: Nail disorder (Total (N = 99)): 1 ( 1.0%) | Domvanalimab-related AE: Nasal mucosal disorder (Total (N = 99)): 1 ( 1.0%) | Domvanalimab-related AE: Nausea (Total (N = 99)): 6 (6.1%) | Domvanalimab-related AE: Oral pain (Total (N = 99)): 1 ( 1.0%) | Domvanalimab-related AE: Pain (Total (N = 99)): 2 ( 2.0%) | Domvanalimab-related AE: Pancreatitis (Total (N = 99)): 1 ( 1.0%) | Domvanalimab-related AE: Paraesthesia (Total (N = 99)): 1 ( 1.0%) | Domvanalimab-related AE: Peripheral sensory neuropathy (Total (N = 99)): 1 ( 1.0%) | Domvanalimab-related AE: Pneumonitis (Total (N = 99)): 2 ( 2.0%) | Domvanalimab-related AE: Pruritus (Total (N = 99)): 9 (9.1%) | Domvanalimab-related AE: Pruritus generalised (Total (N = 99)): 1 ( 1.0%) | Domvanalimab-related AE: Pulmonary pain (Total (N = 99)): 1 ( 1.0%) | Domvanalimab-related AE: Pyrexia (Total (N = 99)): 5 (5.1%) | Domvanalimab-related AE: Rash (Total (N = 99)): 4 (4.0%) | Domvanalimab-related AE: Rash maculo-papular (Total (N = 99)): 6 (6.1%) | Domvanalimab-related AE: Rash pruritic (Total (N = 99)): 1 ( 1.0%) | Domvanalimab-related AE: Rhinorrhoea (Total (N = 99)): 1 ( 1.0%) | Domvanalimab-related AE: Transaminases increased (Total (N = 99)): 1 ( 1.0%) | Domvanalimab-related AE: Tumour flare (Total (N = 99)): 3 (3.0%) | Domvanalimab-related AE: Tumour pain (Total (N = 99)): 1 ( 1.0%) | Domvanalimab-related AE: Vomiting (Total (N = 99)): 1 ( 1.0%) | tolerability in cancer patients (clinical data to date): well tolerated
